According to article PMC7094300 (Febs Letters, 2006):

Molecular target: the molecule itself
Experiment: small-angle X-ray scattering + cross-linking + other: enzyme kinetics

B1: SARS CoV main proteinase (enzyme)
chain: SGFRKMAFPSGKVEGCMVQVTCGTTTLNGLWLDDTVYCPRHVICTAEDMLNPNYEDLLIRKSNHSFLVQAGNVQLRVIGHSMQNCLLRLKVDTSNPKTPKYKFVRIQPGQTFSVLACYNGSPSGVYQCAMRPNHTIKGSFLNGSCGSVGFNIDYDCVSFCYMHHMELPTGVHAGTDLEGKFYGPFVDRQTAQAAGTDTTITLNVLAWLYAAVINGDRWFLNRFTTTLNDFNLVAMKYNYEPLTQDHVDILGPLSAQTGIAVLDMCAALKELLQNGMNGRTILGSTILEDEFTPFDVVRQCSGVTFQ
With B1 the “stoichiometry N” value was 2.
